Measured values as given in US20030162168A1.

Target: chimera H (HCV NS3 to NS5B-P6' fused to tTA, NS3 active site mutant S1165A, unmodified NS5A/5B junction) (Hepatitis C virus 1b (human serum isolate))
Assay: cell-based or functional assay

For “chimera I (HCV NS3 to NS5B-P6' fused to tTA, NS5A/5B cleavage site P1-P1' mutated to R-P; source of active NS3 protease)”, the luciferase activity, triple transfection of chimera H, I and the pUHC13-3 reporter into 293 cells was 2e+06 cps.
